Results from the supplement of paper PMC9112550, “Optimization of the antimicrobial peptide Bac7 by deep mutational scanning” (BMC Biology, 2022).

System: Escherichia coli TOP10
Experiment: shrunken log2 fold change of peptide-encoding DNA abundance (4.5 h post-induction vs induction); higher = less antimicrobial activity (less host growth inhibition)
Settings: time post-induction: 4.5 h; library: site-saturation at positions 5, 18, 19, 20
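Note: peptides expressed intracellularly from a pBAD plasmid library in pooled LB shake-flask culture, induced with 0.3% L-arabinose, DNA abundance read by NGS, three biological replicates, DESeq2 with apeglm shrinkage.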

Sequence | shrunken log2 fold change
RRIRRRPPRLPRPRPRPFSQPRP | -0.422
RRIRTRPPRLPRPRPRPTFMPRP | -0.191
RRIRWRPPRLPRPRPRPKAGPRP | 0.538
RRIRDRPPRLPRPRPRPAWRPRP | 0.812
RRIRTRPPRLPRPRPRPPMHPRP | 0.141
RRIRGRPPRLPRPRPRPADRPRP | 1.07
RRIRIRPPRLPRPRPRPNFSPRP | -0.26
RRIRERPPRLPRPRPRPTTCPRP | 0.0164
RRIRVRPPRLPRPRPRPDGWPRP | 0.223
RRIRDRPPRLPRPRPRPAHNPRP | -0.206
RRIRSRPPRLPRPRPRPGVLPRP | 0.0866
RRIRSRPPRLPRPRPRPPCFPRP | -0.0133
RRIRGRPPRLPRPRPRPSQTPRP | 1.08
RRIRSRPPRLPRPRPRPTLNPRP | -0.0269
RRIRGRPPRLPRPRPRPISTPRP | 0.289
RRIRGRPPRLPRPRPRPKEAPRP | 0.948
RRIRSRPPRLPRPRPRPYCIPRP | -0.26
RRIRCRPPRLPRPRPRPNNIPRP | -0.843
RRIRARPPRLPRPRPRPLRDPRP | 0.948
RRIRIRPPRLPRPRPRPPWAPRP | 0.388
RRIRSRPPRLPRPRPRPETTPRP | 0.461
RRIRQRPPRLPRPRPRPSNRPRP | -0.158
RRIRPRPPRLPRPRPRPECTPRP | 0.0119
RRIRQRPPRLPRPRPRPNRWPRP | -0.0161
RRIRCRPPRLPRPRPRPSFVPRP | -0.68

Sequence | shrunken log2 fold change
RRIRSRPPRLPRPRPRPQLHPRP | -0.175
RRIRMRPPRLPRPRPRPWTYPRP | -0.0551
RRIRCRPPRLPRPRPRPSSTPRP | -0.855
RRIRHRPPRLPRPRPRPLAGPRP | 0.312
RRIRARPPRLPRPRPRPKGHPRP | 0.359
RRIRHRPPRLPRPRPRPCMKPRP | 0.0319
RRIRGRPPRLPRPRPRPEPMPRP | 0.648
RRIRTRPPRLPRPRPRPVKNPRP | -0.284
RRIRVRPPRLPRPRPRPGSKPRP | 0.0731
RRIRCRPPRLPRPRPRPAIGPRP | -0.135
RRIRMRPPRLPRPRPRPATPPRP | 1.24
RRIRRRPPRLPRPRPRPCDPPRP | 0.0316
RRIRDRPPRLPRPRPRPYRMPRP | -0.0515
RRIRPRPPRLPRPRPRPVWVPRP | 0.0215
RRIRVRPPRLPRPRPRPDFQPRP | -0.163
RRIRARPPRLPRPRPRPQNQPRP | -0.141
RRIRERPPRLPRPRPRPDMWPRP | -0.0874
RRIRARPPRLPRPRPRPRRPPRP | 0.494
RRIRQRPPRLPRPRPRPDCTPRP | 0.0901
RRIRDRPPRLPRPRPRPRNCPRP | -0.152
RRIRQRPPRLPRPRPRPGIHPRP | 0.0177
RRIRKRPPRLPRPRPRPRAHPRP | 0.68
RRIRVRPPRLPRPRPRPDCLPRP | -0.318
RRIRGRPPRLPRPRPRPMGVPRP | 0.00855
RRIRWRPPRLPRPRPRPVNKPRP | -0.0372

Sequence | shrunken log2 fold change
RRIRGRPPRLPRPRPRPTDKPRP | 0.705
RRIRDRPPRLPRPRPRPSFKPRP | -0.0471
RRIRTRPPRLPRPRPRPQIQPRP | -0.418
RRIRNRPPRLPRPRPRPSGPPRP | -0.0894
RRIRLRPPRLPRPRPRPLYAPRP | -0.389
RRIRRRPPRLPRPRPRPMGSPRP | -0.0322
RRIRWRPPRLPRPRPRPADSPRP | -0.29
RRIRHRPPRLPRPRPRPLEMPRP | -0.236
RRIRNRPPRLPRPRPRPCCKPRP | -0.274
RRIRQRPPRLPRPRPRPRASPRP | 0.392
RRIRARPPRLPRPRPRPWTLPRP | -0.256
RRIRIRPPRLPRPRPRPDKTPRP | -0.0467
RRIRQRPPRLPRPRPRPAFDPRP | -0.094
RRIRWRPPRLPRPRPRPRVVPRP | 0.655
RRIRFRPPRLPRPRPRPEESPRP | 0.195
RRIRKRPPRLPRPRPRPECIPRP | 0.0177
RRIRGRPPRLPRPRPRPEEFPRP | 0.593
RRIRHRPPRLPRPRPRPKHLPRP | -0.237
RRIRKRPPRLPRPRPRPMLDPRP | 0.16
RRIRWRPPRLPRPRPRPGKAPRP | 0.0616
RRIRNRPPRLPRPRPRPANCPRP | -0.185
RRIRERPPRLPRPRPRPMAHPRP | -0.0343
RRIRARPPRLPRPRPRPDDPPRP | 0.632
RRIRTRPPRLPRPRPRPSKWPRP | -0.0672
RRIRFRPPRLPRPRPRPTWGPRP | 0.132

Sequence | shrunken log2 fold change
RRIRGRPPRLPRPRPRPPPKPRP | 1.7
RRIRPRPPRLPRPRPRPAQSPRP | 0.448
RRIRCRPPRLPRPRPRPSALPRP | -0.0403
RRIRKRPPRLPRPRPRPRPFPRP | 0.612
RRIRKRPPRLPRPRPRPDPCPRP | 0.312
RRIRCRPPRLPRPRPRPLWMPRP | -0.378
RRIRKRPPRLPRPRPRPKRVPRP | 0.717
RRIRARPPRLPRPRPRPQHTPRP | 0.156
RRIRVRPPRLPRPRPRPLIFPRP | -0.317
RRIRTRPPRLPRPRPRPYYYPRP | -1.2
RRIRVRPPRLPRPRPRPDRWPRP | 0.478
RRIRVRPPRLPRPRPRPNCEPRP | 3.97
RRIRGRPPRLPRPRPRPASTPRP | 0.653
RRIRVRPPRLPRPRPRPAAPPRP | 0.452
RRIRNRPPRLPRPRPRPTRHPRP | 0.162
RRIRLRPPRLPRPRPRPFECPRP | -0.345
RRIRTRPPRLPRPRPRPAEWPRP | 0.0396
RRIRNRPPRLPRPRPRPDNVPRP | -0.0161
RRIRNRPPRLPRPRPRPEDSPRP | -0.0784
RRIRWRPPRLPRPRPRPHWCPRP | -0.062
RRIRMRPPRLPRPRPRPLNSPRP | -0.0401
RRIRRRPPRLPRPRPRPLSSPRP | 0.234
RRIRARPPRLPRPRPRPCSEPRP | 0.244
RRIRCRPPRLPRPRPRPVMIPRP | -0.0658
RRIRLRPPRLPRPRPRPDKVPRP | -0.0274

Sequence | shrunken log2 fold change
RRIRFRPPRLPRPRPRPGVQPRP | 0.119
RRIRYRPPRLPRPRPRPFLHPRP | -0.786
RRIRRRPPRLPRPRPRPNDPPRP | 0.0958
RRIRHRPPRLPRPRPRPQWHPRP | -0.299
RRIRQRPPRLPRPRPRPLVGPRP | 0.38
RRIRMRPPRLPRPRPRPRLAPRP | 2.7
RRIRVRPPRLPRPRPRPFAGPRP | 0.03
RRIRTRPPRLPRPRPRPAFNPRP | -0.121
RRIRKRPPRLPRPRPRPWRYPRP | -0.00865
RRIRVRPPRLPRPRPRPFVKPRP | -0.199
RRIRGRPPRLPRPRPRPSEKPRP | 1.49
RRIRVRPPRLPRPRPRPYNFPRP | -0.577
RRIRARPPRLPRPRPRPNFWPRP | 0.352
RRIRMRPPRLPRPRPRPYIEPRP | -0.201
RRIRTRPPRLPRPRPRPWNKPRP | -0.594
RRIRLRPPRLPRPRPRPVGKPRP | -0.0227
RRIRQRPPRLPRPRPRPDVKPRP | -0.0135
RRIRKRPPRLPRPRPRPTWIPRP | 0.00938
RRIRIRPPRLPRPRPRPNYMPRP | -0.177
RRIRIRPPRLPRPRPRPPFCPRP | -0.256
RRIRIRPPRLPRPRPRPTPMPRP | -0.102
RRIRLRPPRLPRPRPRPCHRPRP | 0.00936
RRIRFRPPRLPRPRPRPCLEPRP | -0.489
RRIRDRPPRLPRPRPRPLIGPRP | 0.239
RRIRIRPPRLPRPRPRPRRCPRP | 0.221

Sequence | shrunken log2 fold change
RRIRWRPPRLPRPRPRPCNSPRP | -0.281
RRIRARPPRLPRPRPRPEDNPRP | 0.132
RRIRQRPPRLPRPRPRPKEMPRP | 0.229
RRIRKRPPRLPRPRPRPGMRPRP | 0.926
RRIRNRPPRLPRPRPRPHHCPRP | -0.0844
RRIRSRPPRLPRPRPRPIQRPRP | 0.0978
RRIRWRPPRLPRPRPRPMHMPRP | -0.287
RRIRQRPPRLPRPRPRPYLCPRP | -0.00822
RRIRTRPPRLPRPRPRPPVPPRP | 0.139
RRIRHRPPRLPRPRPRPNWRPRP | 0.0926
RRIRLRPPRLPRPRPRPDCFPRP | 0.19
RRIRFRPPRLPRPRPRPSCSPRP | -0.498
RRIRYRPPRLPRPRPRPAIRPRP | -0.0189
RRIRERPPRLPRPRPRPHFYPRP | -0.0121
RRIRCRPPRLPRPRPRPVHNPRP | -0.415
RRIRGRPPRLPRPRPRPYMDPRP | -0.0735
RRIRSRPPRLPRPRPRPVKHPRP | 0.124
RRIRHRPPRLPRPRPRPQGIPRP | 0.0372
RRIRRRPPRLPRPRPRPYMMPRP | -0.699
RRIRARPPRLPRPRPRPWPGPRP | 0.266
RRIRNRPPRLPRPRPRPTQDPRP | 0.387
RRIRVRPPRLPRPRPRPHEDPRP | 0.0277
RRIRLRPPRLPRPRPRPEICPRP | -0.0881
RRIRWRPPRLPRPRPRPHNYPRP | -0.267
RRIRKRPPRLPRPRPRPCEKPRP | 0.492
